The source of these data is patent US20220380473A1, “ANTI-GAL3 ANTIBODIES AND USES THEREOF” (TrueBinding, Inc., priority 2019, published 2022).

In one assay the test system is B16F10 cells. Kind of assay: Immune profiling in B16F10 lung metastasis mice. It is filed as in vivo, mouse. Particulars: 10 mg/kg I.P., day 8, vs isotype control. The method, then:
Mice were implanted with 1 million B16F10 cells I.V. Mice were then treated with IMT001 or isotype control (10 mg/kg I.P.) on Day 0, 1, 3 and 7 and sacrificed on day 8 for lung immune cell isolation and phenotyping. Cells were isolated from the lungs, and then stained with fluorescently labeled antibodies against lymphocyte markers CD3, CD4, CD8, CD19, DX5 and analyzed by flow cytometry.

Assay [1] deals with T1, interaction between Gal3 and TIM-3 (Mus musculus, UniProt P16110).
T1 construct: purchased BioLegend (mouse Gal3); R&D systems (mouse TIM-3 Fc)
As to the kind of experiment: Blocking ELISA, mouse Gal3 coated plate and mouse TIM-3 Fc. It is filed as binding. Particulars: mGal3 coated plate, mouse TIM-3 Fc. The method, then:
ELISA assays were also performed to test the interaction between Gal3 and TIM-3. 96 well ELISA plates (ThermoFisher Scientific) were coated with mouse Gal3 protein (BioLegend, San Diego, Calif.) in PBS or human Gal9 protein (R&D systems) in PBS or phosphatidylserine (PS) (Sigma) in ethanol and incubated at 4° C. for overnight. The plate was washed three times with TBST and then blocked with PBS buffer containing 2% BSA at room temperature for 1 hour. In FIG. 5A, different anti Gal3 antibodies, i.e. mGal3 polyclonal antibody (R&D systems), mAb IMT001 (also described in WO 2019/023247, hereby expressly incorporated by reference in its entirety), mAb M3/38 (Thermofisher Scientific) (FIG. 5A), were added to well that has been coated with Gal3. The antibodies were incubated for 10 minutes and mouse TIM-3 Fc were then added to the plates and incubated for an additional one-hour incubation. Plates were then washed for three times and followed by incubation with anti-human-IgG-HRP (Jackson ImmunoResearch) for 1 h at room temperature. The color was developed with TMB subtract (GeneTex, Irvine, Calif.) after three time washes with TBST and the reaction was terminated with 1N HCl. The optical density (OD) was read at 450 nm. The results were expressed as the average OD of duplicates±SD. […]
On the technique in general: ELISA stands for enzyme-linked immunosorbent assay.

T1 sequence (P16110 2-264 limits assumed): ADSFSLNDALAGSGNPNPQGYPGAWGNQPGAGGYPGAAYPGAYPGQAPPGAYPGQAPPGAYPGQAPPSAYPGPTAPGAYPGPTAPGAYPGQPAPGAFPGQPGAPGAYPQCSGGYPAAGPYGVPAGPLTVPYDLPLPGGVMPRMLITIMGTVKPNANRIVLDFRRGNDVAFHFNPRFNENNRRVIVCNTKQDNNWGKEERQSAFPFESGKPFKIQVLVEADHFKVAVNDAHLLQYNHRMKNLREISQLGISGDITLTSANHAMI

B1: IMT001: anti-Gal3 monoclonal antibody (Immutics); printed as mIMT001 (IMT001), murine (antibody, V domains shown)
VH: QIQLVQSGPELKKPGETVKISCKASGYTFTNYGMNWVKQAPGKGLKWMGWINTNTGEPTYVEEFKGRFAFSLETSASTAYLQINNLKNEDTATYFCAPYDNFFAYWGQGTLVTVSA
VL: DIVITQDELSNPVTSGESVSISCRSSKSLLYKDGKTYLNWFLQRPGQSPQLLIYLMSTHASGVSDRFSGSGSGTDFTLEISRVKAEDVGVYYCQQLVDYPLTFGAGTKLELK
With B1, the “number of immune effector cells in lungs (CD3, CD4, CD8, CD19, DX5)” value in the assay with B16F10 cells is on record as “increased the number of various immune effector cell”. In assay [1], the “block of Gal3 binding to TIM-3” value is recorded as “blocked”.
